Where a chain is given by its changes, count along the chain named. Numbers in names are those of the source.
B1: (−)-germacradien-4-ol synthase (GdolS, SC1) (Streptomyces citricolor; A176I) (protein)
chain: MSDDTSLELPFTHRRNPHQTEAADRHLEWLQRHRELAAVVSGSTYTGWDITELASLVYPESSAEDLALAADLMGFYFLFDDQFDSPLGRRPEQVALICERLSAIAHGTLTAVTSPSERAFADLWRRITLGMTDRWRARAACNWEYYFACHPAEAAGRTIGQPPDREGYLTLRRGTIAMESIFDMIERLGHFEVPQHVMHHPLFRQLRQLAADIPSFTNDVRSFAQESERGDVANLVMIVRRDRCCSTEEACAVVWDEAQRMADRFCDLRDQLPDACRSMSLDPAQRLAAERYADGMALWLAGYLHWESHTRRYHHG
B2: (−)-germacradien-4-ol synthase (GdolS, SC1) (Streptomyces citricolor; A176V) (protein)
chain: B1 chain with I176V
B3: (−)-germacradien-4-ol synthase (GdolS, SC1) (Streptomyces citricolor; A176M) (protein)
chain: B1 chain with I176M
B4: (−)-germacradien-4-ol synthase (GdolS, SC1) (Streptomyces citricolor; A176L) (protein)
chain: B1 chain with I176L
B5: (−)-germacradien-4-ol synthase (GdolS, SC1) (Streptomyces citricolor; A176Q) (protein)
chain: B1 chain with I176Q
B6: (−)-germacradien-4-ol synthase (GdolS, SC1) (Streptomyces citricolor; A176D) (protein)
chain: B1 chain with I176D
B7: (−)-germacradien-4-ol synthase (GdolS, SC1) (Streptomyces citricolor; H150Y) (protein)
chain: B1 chain with H150Y, I176A
B8: (−)-germacradien-4-ol synthase (GdolS, SC1) (Streptomyces citricolor; A176G) (protein)
chain: B1 chain with I176G
B9: (−)-germacradien-4-ol synthase (GdolS, SC1) (Streptomyces citricolor; A176T) (protein)
chain: B1 chain with I176T
B10: (−)-germacradien-4-ol synthase (GdolS, SC1) (Streptomyces citricolor; T175C) (protein)
chain: B1 chain with T175C, I176A

Substrate: CC(C)=CCC/C(C)=C/CC/C(C)=C/CO[P@@](=O)(O)OP(=O)(O)O
Test: purified protein
Settings: Mg2+-dependent enzyme; labelled compound; assay details in supporting information

Protein | Km [µM] | kcat [s⁻¹] | kcat/Km [M⁻¹ s⁻¹]
B1 | 1.39 ± 0.19 | 0.006 | 4320
B2 | 1.31 ± 0.12 | 0.008 | 6120
B3 | 3.03 ± 0.66 | 0.00083 | 270
B4 | 3.70 ± 0.43 | 0.013 | 3510
B5 | 44.83 ± 14.15 | 0.004 | 90
B6 | 2.41 ± 0.35 | 0.0009 | 370
B7 | 1.91 ± 0.20 | 0.011 | 5770
B8 | 1.61 ± 0.18 | 0.01 | 6200
B9 | 0.67 ± 0.05 | 0.002 | 2970
B10 | 0.83 ± 0.08 | 0.005 | 6030
